From the Human Domainome abundance scans (Beltran et al. 2025) come the findings set out here.

± gives the uncertainty stated by the source.

To fix the notation:
B1: Dynamin-binding protein, residues 242 to 304; numbered along this chain, Q6XZF7 (parent)
chain: EEPGTYGVALYRFQALEPNELDFEVGDKIRILATLEDGWLEGSLKGRTGIFPYRFVKLCPDTR

In this data set the parent is B1. Put plainly: abundance fitness (aPCA) (normalised: wild type 0, dead -1); higher = more abundant; growth selection in yeast, the domain comes from the species named. To be noted: Homo sapiens.
As to EEPGTYGVALYRFQALEPNELDFEVGDKIRILATLEDGWLEGSLKGRTGHFPYRFVKLCPDTR, the abundance fitness was -0.681 ± 0.12.

As for EEPGTYGVALYRFQALEPNELDFEVGDKIRILATLEDGWLEGSLKGRTGTFPYRFVKLCPDTR, the abundance fitness was -0.306 ± 0.082.

With EEPGTYGVALYRFQALEPNELDFEVGDKIRILATLEDGWLEGSLKGRTGLFPYRFVKLCPDTR, the abundance fitness is -0.383 ± 0.061. On to EEPGTYGVALYRFQALEPNELDFEVGDKIRILATLEDGWLEGSLKGRTGYFPYRFVKLCPDTR, for which the abundance fitness was -0.533 ± 0.073.

For EEPGTYGVALYRFQALEPNELDFEVGDKIRILATLEDGWLEGSLKGRTGRFPYRFVKLCPDTR, the abundance fitness amounted to 0.138 ± 0.058.

As to EEPGTYGVALYRFQALEPNELDFEVGDKIRILATLEDGWLEGSLKGRTGFFPYRFVKLCPDTR, the abundance fitness was -0.598 ± 0.077. As for EEPGTYGVALYRFQALEPNELDFEVGDKIRILATLEDGWLEGSLKGRTGDFPYRFVKLCPDTR, the figure is -0.91 ± 0.14; as for EEPGTYGVALYRFQALEPNELDFEVGDKIRILATLEDGWLEGSLKGRTGCFPYRFVKLCPDTR, -0.275 ± 0.055; as for EEPGTYGVALYRFQALEPNELDFEVGDKIRILATLEDGWLEGSLKGRTGNFPYRFVKLCPDTR, -0.43 ± 0.077. Regarding EEPGTYGVALYRFQALEPNELDFEVGDKIRILATLEDGWLEGSLKGRTGSFPYRFVKLCPDTR, the abundance fitness is -0.541 ± 0.066. Take EEPGTYGVALYRFQALEPNELDFEVGDKIRILATLEDGWLEGSLKGRTGWFPYRFVKLCPDTR: the abundance fitness is -0.693 ± 0.19. With EEPGTYGVALYRFQALEPNELDFEVGDKIRILATLEDGWLEGSLKGRTGMFPYRFVKLCPDTR, the abundance fitness was -0.298 ± 0.12. For EEPGTYGVALYRFQALEPNELDFEVGDKIRILATLEDGWLEGSLKGRTGPFPYRFVKLCPDTR, the abundance fitness is -0.973 ± 0.27. The same measure for EEPGTYGVALYRFQALEPNELDFEVGDKIRILATLEDGWLEGSLKGRTGQFPYRFVKLCPDTR: -0.093 ± 0.12.

Turning to EEPGTYGVALYRFQALEPNELDFEVGDKIRILATLEDGWLEGSLKGRTGAFPYRFVKLCPDTR, the abundance fitness is -0.379 ± 0.08. Regarding EEPGTYGVALYRFQALEPNELDFEVGDKIRILATLEDGWLEGSLKGRTGGFPYRFVKLCPDTR, the abundance fitness is -0.823 ± 0.091. As for EEPGTYGVALYRFQALEPNELDFEVGDKIRILATLEDGWLEGSLKGRTGEFPYRFVKLCPDTR, the figure is -0.341 ± 0.15; as for EEPGTYGVALYRFQALEPNELDFEVGDKIRILATLEDGWLEGSLKGRTGKFPYRFVKLCPDTR, 0.153 ± 0.13. Take EEPGTYGVALYRFQALEPNELDFEVGDKIRILATLEDGWLEGSLKGRTGIFGYRFVKLCPDTR: the abundance fitness is -0.534 ± 0.054.

EEPGTYGVALYRFQALEPNELDFEVGDKIRILATLEDGWLEGSLKGRTGIFDYRFVKLCPDTR: the abundance fitness is -0.817 ± 0.12.

In the case of EEPGTYGVALYRFQALEPNELDFEVGDKIRILATLEDGWLEGSLKGRTGIFMYRFVKLCPDTR, the abundance fitness was -0.401 ± 0.23.

For the variant EEPGTYGVALYRFQALEPNELDFEVGDKIRILATLEDGWLEGSLKGRTGIFCYRFVKLCPDTR, the abundance fitness is -0.7 ± 0.082. In the case of EEPGTYGVALYRFQALEPNELDFEVGDKIRILATLEDGWLEGSLKGRTGIFRYRFVKLCPDTR, the abundance fitness is -0.855 ± 0.088. As for EEPGTYGVALYRFQALEPNELDFEVGDKIRILATLEDGWLEGSLKGRTGIFNYRFVKLCPDTR, the figure is -0.767 ± 0.11; as for EEPGTYGVALYRFQALEPNELDFEVGDKIRILATLEDGWLEGSLKGRTGIFFYRFVKLCPDTR, -0.826 ± 0.11; as for EEPGTYGVALYRFQALEPNELDFEVGDKIRILATLEDGWLEGSLKGRTGIFLYRFVKLCPDTR, -0.567 ± 0.097.

For EEPGTYGVALYRFQALEPNELDFEVGDKIRILATLEDGWLEGSLKGRTGIFIYRFVKLCPDTR, the abundance fitness is -0.741 ± 0.11. As for EEPGTYGVALYRFQALEPNELDFEVGDKIRILATLEDGWLEGSLKGRTGIFAYRFVKLCPDTR, the figure is -0.68 ± 0.097. Take EEPGTYGVALYRFQALEPNELDFEVGDKIRILATLEDGWLEGSLKGRTGIFKYRFVKLCPDTR: the abundance fitness is -0.794 ± 0.33. The same measure for EEPGTYGVALYRFQALEPNELDFEVGDKIRILATLEDGWLEGSLKGRTGIFQYRFVKLCPDTR: -0.912 ± 0.49. As to EEPGTYGVALYRFQALEPNELDFEVGDKIRILATLEDGWLEGSLKGRTGIFHYRFVKLCPDTR, the abundance fitness is -0.734 ± 0.13. Take EEPGTYGVALYRFQALEPNELDFEVGDKIRILATLEDGWLEGSLKGRIGIFPYRFVKLCPDTR: the abundance fitness is -0.214 ± 0.058. As to EEPGTYGVALYRFQALEPNELDFEVGDKIRILATLEDGWLEGSLKGRFGIFPYRFVKLCPDTR, the abundance fitness is -0.49 ± 0.067. The same measure for EEPGTYGVALYRFQALEPNELDFEVGDKIRILATLEDGWLEGSLKGRMGIFPYRFVKLCPDTR: -0.916 ± 0.27; for EEPGTYGVALYRFQALEPNELDFEVGDKIRILATLEDGWLEGSLKGRWGIFPYRFVKLCPDTR: -0.977 ± 0.29. As for EEPGTYGVALYRFQALEPNELDFEVGDKIRILATLEDGWLEGSLKGRLGIFPYRFVKLCPDTR, the figure is -0.436 ± 0.063; as for EEPGTYGVALYRFQALEPNELDFEVGDKIRILATLEDGWLEGSLKGRNGIFPYRFVKLCPDTR, -0.453 ± 0.076; as for EEPGTYGVALYRFQALEPNELDFEVGDKIRILATLEDGWLEGSLKGRKGIFPYRFVKLCPDTR, 0.112 ± 0.091. With EEPGTYGVALYRFQALEPNELDFEVGDKIRILATLEDGWLEGSLKGRRGIFPYRFVKLCPDTR, the abundance fitness is -0.105 ± 0.062. As for EEPGTYGVALYRFQALEPNELDFEVGDKIRILATLEDGWLEGSLKGRVGIFPYRFVKLCPDTR, the figure is -0.075 ± 0.048; as for EEPGTYGVALYRFQALEPNELDFEVGDKIRILATLEDGWLEGSLKGRSGIFPYRFVKLCPDTR, -0.351 ± 0.058; as for EEPGTYGVALYRFQALEPNELDFEVGDKIRILATLEDGWLEGSLKGRPGIFPYRFVKLCPDTR, -0.867 ± 0.18.
